The values below come from patent publication CN113880955A (dated 2022).

Positions count from the first letter of the chain named. Numbers in names are those of the source.

Assay [1] has as its target T1, 人CD70 (human, UniProt P32970 1-193).
T1 construct: whole, on cells; also called 人类CD70; CD27L
T1 sequence (looked up): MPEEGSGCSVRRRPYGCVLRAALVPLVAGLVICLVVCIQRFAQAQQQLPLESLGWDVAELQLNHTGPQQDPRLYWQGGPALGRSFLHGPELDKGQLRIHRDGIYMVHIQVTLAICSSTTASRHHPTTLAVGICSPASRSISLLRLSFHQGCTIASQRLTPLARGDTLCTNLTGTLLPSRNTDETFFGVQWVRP
The assay is described as follows: flow cytometry on CD47+CD70+ Raji cells. (In general: Flow cytometry measures light scatter and fluorescence of single cells or particles in a stream.)

Assay [2] has as its target T1, 人CD70. The assay is described as follows: flow cytometry on CD47+CD70+ U266 cells (double positive: binding through CD70 and/or CD47).
Assay [3] addresses T2, 人CD47 (human, UniProt Q08722 19-323).
T2 construct: whole, on cells
The assay is described as above.

In assay [4] the target is T1, 人CD70. The assay is described as follows: flow cytometry on CHO cells expressing human CD70.

T2 sequence (Q08722 19-323): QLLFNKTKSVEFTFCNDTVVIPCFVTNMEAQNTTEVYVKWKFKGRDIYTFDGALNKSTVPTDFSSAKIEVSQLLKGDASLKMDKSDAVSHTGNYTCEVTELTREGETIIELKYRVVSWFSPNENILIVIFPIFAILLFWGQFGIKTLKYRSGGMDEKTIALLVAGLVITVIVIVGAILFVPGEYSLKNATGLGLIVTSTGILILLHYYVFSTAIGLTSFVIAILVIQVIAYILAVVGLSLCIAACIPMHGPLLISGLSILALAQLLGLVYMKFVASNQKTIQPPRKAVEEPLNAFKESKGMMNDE

B1: Cusatuzumab (antibody, human IgG1, lambda, V domains shown)
VH: EVQLVESGGGLVQPGGSLRLSCAASGFTFSVYYMNWVRQAPGKGLEWVSDINNEGGTTYYADSVKGRFTISRDNSKNSLYLQMNSLRAEDTAVYYCARDAGYSNHVPIFDSWGQGTLVTVSS
VL: QAVVTQEPSLTVSPGGTVTLTCGLKSGSVTSDNFPTWYQQTPGQAPRLLIYNTNTRHSGVPDRFSGSILGNKAALTITGAQADDEAEYFCALFISNPSVEFGGGTQLTVLG
notes: IgG antibody against CD70, used as control
For the molecule B1, the binding result in assay [1] was “binds”.

B2: IMM4002 (bispecific antibody, human IgG1, kappa)
heavy: not shown
light: DIVLTQSPASLAVSPGQRATITCRASKSVSASGYSFLHWYQQKPGQPPKLLIYLASNLESGVPARFSGSGSGTDFTLTINPVEANDTANYYCQHSRELPPTFGGGTKVEIKRTVAAPSVFIFPPSDEQLKSGTASVVCLLNNFYPREAKVQWKVDNALQSGNSQESVTEQDSKDSTYSLSSTLTLSKADYEKHKVYACEVTHQGLSSPVTKSFNRGEC
notes: Made in CHO-S cells; also called 重组融合蛋白IMM4002
Take B2: in assay [2], the binding result was “binds”.

B3: IMM4002M (bispecific antibody, human IgG1, kappa)
heavy: not shown
light: B2 light with N85E
notes: As IMM4002, but the light chain variable region carries N85E, which removes the glycosylation site (antibody part = IMM40M); also called 重组融合蛋白IMM4002M
In the case of B3, the binding result in assay [2] and in assay [3] was “binds” each time.

B4: IMM4003 (bispecific antibody, human IgG1, kappa)
heavy: QVQLVQSGAEVKKPGASVKVSCKVSGYTFTDSALHWVRQAPGKGLEWMGVISTYDGDTDYNQKFKGRVTMTEDTSTDTAYMELSSLRSEDTAVYYCARRGYYDYDWFPYWGQGTLVTVSAASTKGPSVFPLAPSSKSTSGGTAALGCLVKDYFPEPVTVSWNSGALTSGVHTFPAVLQSSGLYSLSSVVTVPSSSLGTQTYICNVNHKPSNTKVDKRVEPKSCDKTHTCPPCPAPELLGGPSVFLFPPKPKDTLMISRTPEVTCVVVDVSHEDPEVKFNWYVDGVEVHNAKTKPREEQYNATYRVVSVLTVLHQDWLNGKEYKCKVSNKALPAPIAATISKAKGQPREPQVYTLPPSREEMTKNQVSLTCLVKGFYPSDIAVEWESNGQPENNYKTTPPVLDSDGSFFLYSKLTVDKSRWQQGNVFSCSVMHEALHNHYTQKSLSLSPGK
light: not shown
notes: also called 重组融合蛋白IMM4003
Regarding B4, the binding result in assay [4] was “binds”.

B5: IMM40H (antibody, human IgG1, kappa, V domains shown)
VH: QVQLVQSGAEVKKPGASVKVSCKVSGYTFTDSALHWVRQAPGKGLEWMGVISTYDGDTDYNQKFKGRVTMTEDTSTDTAYMELSSLRSEDTAVYYCARRGYYDYDWFPYWGQGTLVTVSA
VL: DIVLTQSPASLAVSPGQRATITCRASKSVSASGYSFLHWYQQKPGQPPKLLIYLASNLESGVPARFSGSGSGTDFTLTINPVEANDTANYYCQHSRELPPTFGGGTKVEIKR
notes: IgG antibody against CD70; also called CD70抗体IMM40H; CD70单特异性抗体IMM40H
For the molecule B5, in assay [4], the binding result is “binds”.
